Experimental data reported in IntAct's records for PubMed 29039417.

B1: Protein PTHB1 (Homo sapiens), Q3SYG4 (parent)
chain: MSLFKARDWWSTILGDKEEFDQGCLCLANVDNSGNGQDKIIVGSFMGYLRIFSPHPAKTGDGAQAEDLLLEVDLRDPVLQVEVGKFVSGTEMLHLAVLHSRKLCVYSVSGTLGNVEHGNQCQMKLMYEHNLQRTACNMTYGSFGGVKGRDLICIQSMDGMLMVFEQESYAFGRFLPGFLLPGPLAYSSRTDSFLTVSSCQQVESYKYQVLAFATDADKRQETEQQKLGSGKRLVVDWTLNIGEQALDICIVSFNQSASSVFVLGERNFFCLKDNGQIRFMKKLDWSPSCFLPYCSVSEGTINTLIGNHNNMLHIYQDVTLKWATQLPHIPVAVRVGCLHDLKGVIVTLSDDGHLQCSYLGTDPSLFQAPNVQSRELNYDELDVEMKELQKIIKDVNKSQGVWPMTEREDDLNVSVVVSPNFDSVSQATDVEVGTDLVPSVTVKVTLQNRVILQKAKLSVYVQPPLELTCDQFTFEFMTPDLTRTVSFSVYLKRSYTPSELEGNAVVSYSRPTDRNPDGIPRVIQCKFRLPLKLICLPGQPSKTASHKITIDTNKSPVSLLSLFPGFASQSDDDQVNVMGFHFLGGARITVLASKTSQRYRIQSEQFEDLWLITNELILRLQEYFEKQGVKDFACSFSGSIPLQEYFELIDHHFELRINGEKLEELLSERAVQFRAIQRRLLARFKDKTPAPLQHLDTLLDGTYKQVIALADAVEENQGNLFQSFTRLKSATHLVILLIALWQKLSADQVAILEAAFLPLQEDTQELGWEETVDAAISHLLKTCLSKSSKEQALNLNSQLNIPKDTSQLKKHITLLCDRLSKGGRLCLSTDAAAPQTMVMPGGCTTIPESDLEERSVEQDSTELFTNHRHLTAETPRPEVSPLQGVSE
partner: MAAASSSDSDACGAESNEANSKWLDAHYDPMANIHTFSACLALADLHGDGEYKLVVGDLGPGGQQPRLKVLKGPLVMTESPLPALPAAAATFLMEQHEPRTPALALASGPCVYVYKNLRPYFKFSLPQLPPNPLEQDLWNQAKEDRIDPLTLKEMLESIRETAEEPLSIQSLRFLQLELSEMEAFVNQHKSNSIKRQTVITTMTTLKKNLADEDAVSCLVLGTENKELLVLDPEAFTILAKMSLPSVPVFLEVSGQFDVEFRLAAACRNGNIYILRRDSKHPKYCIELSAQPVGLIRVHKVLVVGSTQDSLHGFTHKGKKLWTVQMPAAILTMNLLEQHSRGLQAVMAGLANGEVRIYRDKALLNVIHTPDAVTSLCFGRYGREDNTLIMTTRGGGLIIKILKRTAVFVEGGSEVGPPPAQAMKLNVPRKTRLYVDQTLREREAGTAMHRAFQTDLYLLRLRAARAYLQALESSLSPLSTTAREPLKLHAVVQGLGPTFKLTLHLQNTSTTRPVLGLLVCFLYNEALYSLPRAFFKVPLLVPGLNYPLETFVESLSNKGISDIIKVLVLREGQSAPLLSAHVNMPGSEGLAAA

Variants of: B1
Conditions: with bbs1_human BBS1, Q8NFJ9

Variant	effect of a mutation on the interaction
P438K	with no effect
N448K	with no effect
T428A	with no effect
L662K	with no effect
V415A	with no effect
Q791L	disrupting interaction strength
V485E	with no effect
Y490A	with no effect
L618E	with no effect
N412A	with no effect
H651K	with no effect
R726K	with no effect
V437E	with no effect
T549A	with no effect
E852A	with no effect
D747E	with no effect
M837V	disrupting interaction strength
G884A	with no effect
V424K	with no effect
A455E	with no effect
Q569K	with no effect
I738K	disrupting interaction strength
I846K	with no effect
E714K	with no effect
T589E	with no effect
Q672E	with no effect
D773K	with no effect

Variant	effect of a mutation on the interaction
L655E	with no effect
A670E	with no effect
D571E	with no effect
H546K	with no effect
S509A	with no effect
V629K	with no effect
H581E	with no effect
R854E	with no effect
Q602K	with no effect
F421K	with no effect
K789A	with no effect
S439E	with no effect
S820E	with no effect
D817E	with no effect
E663A	with no effect
D700E	with no effect
V450K	with no effect
W768E	with no effect
S488E	with no effect
D573A	with no effect
L727K	with no effect
R674A	with no effect
R868A	with no effect
V417A	with no effect
N503E	with no effect
G579K	with no effect
P540E	with no effect

The next lines start with the values.

effect of a mutation on the interaction	Variant
with no effect	T428K
with no effect	G842E
with no effect	L591E
with no effect	T805A
with no effect	I548E
with no effect	S806A
with no effect	L780A
with no effect	L808A
with no effect	L452K
with no effect	N553K
with no effect	L825E
with no effect	I617A
with no effect	P479A
with no effect	D859K
disrupting interaction strength	A690K
with no effect	S494A
with no effect	L500K
with no effect	D470K
with no effect	I751A

effect of a mutation on the interaction	Variant
with no effect	Q672K
with no effect	L815K
with no effect	K443A
with no effect	C826E
with no effect	F721E
with no effect	V838A
with no effect	V459A
with no effect	H869K
with no effect	Q858A
with no effect	P516K
with no effect	A792K
with no effect	S507E
with no effect	L733K
with no effect	G538E
with no effect	W741K
with no effect	E406K
with no effect	N503K
with no effect	R521K

Variants of: B1
Conditions: with bbs1_human BBS1, Q8NFJ9
Remark: another data set of the same source

effect of a mutation on the interaction	Variant
with no effect	A690K
